These results are taken from the supplement of paper PMC10567573.

B1: RHOBTB3 (parent)
chain: GGADIIVIKYNVNDKFSFHEVKDN
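Also: lentivirally expressed fusions sorted by FACS into six bins by GFP to DsRed ratio, PSI derived from sequencing read proportions per bin multiplied by bin number.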

Variants of B1 are the subject of the data set. The experiment in a line: protein stability index of a GFP-peptide fusion (GPS, HEK-293T) (PSI 1-6); higher = more stable. As to conditions: c terminus: a fixed tail appended.
On to GGADIIVIKYGVNDKFSFHEVKDN [N11G], for which the protein stability index is 3.11.

Regarding GGADIIVIKYKVNDKFSFHEVKDN [N11K], the protein stability index came out at 4.82.

Turning to GGADIIVFKYNVNDKFSFHEVKDN [I8F], the protein stability index is 1.44.

For GGADIIVDKYNVNDKFSFHEVKDN [I8D], the protein stability index stood at 3.81.

For GGADIIVCKYNVNDKFSFHEVKDN [I8C], the protein stability index turned out to be 2.22.

GGADIIVTKYNVNDKFSFHEVKDN [I8T]: the protein stability index came out at 2.95.

Take GGADIIVYKYNVNDKFSFHEVKDN [I8Y]: the protein stability index was 1.59.

Turning to GGADIIVIKYNVQDKFSFHEVKDN [N13Q], the protein stability index is 3.3.

As for GGADIIVIKYNVRDKFSFHEVKDN [N13R], the protein stability index turned out to be 1.99.

With GGADIIVIKYNVPDKFSFHEVKDN [N13P], the protein stability index was determined as 3.19.

For GGADIIVIKYNVYDKFSFHEVKDN [N13Y], the protein stability index came to 1.67.

As to GGADIIVIKYNVWDKFSFHEVKDN [N13W], the protein stability index was determined as 1.96.

As to GGADIIVIHYNVNDKFSFHEVKDN [K9H], the protein stability index stood at 3.31.

As for GGADIIVIFYNVNDKFSFHEVKDN [K9F], the protein stability index was found to be 3.82.

Turning to GGADIIVIRYNVNDKFSFHEVKDN [K9R], the protein stability index stood at 2.33.

GGADIIVITYNVNDKFSFHEVKDN [K9T]: the protein stability index amounted to 2.97.

For GGADISVIKYNVNDKFSFHEVKDN [I6S], the protein stability index came to 3.63.

With GGADIVVIKYNVNDKFSFHEVKDN [I6V], the protein stability index was determined as 1.77.

Regarding GGADIDVIKYNVNDKFSFHEVKDN [I6D], the protein stability index is 4.07.

Regarding GGADITVIKYNVNDKFSFHEVKDN [I6T], the protein stability index amounted to 2.45.

GGADIHVIKYNVNDKFSFHEVKDN [I6H]: the protein stability index came out at 2.92.

On to GGADIWVIKYNVNDKFSFHEVKDN [I6W], for which the protein stability index was found to be 1.79.

With GGADIIVIKYNVNDKFSFCEVKDN [H19C], the protein stability index worked out at 3.17.

As for GGADIIVIKYNVNDKFSFEEVKDN [H19E], the protein stability index came to 2.5.

Take GGADIIVIKYNVNDKFSFIEVKDN [H19I]: the protein stability index turned out to be 1.54.

GGADIIVIKYNVNDKFSFQEVKDN [H19Q]: the protein stability index was 3.57.

Consider GGADIIVIKYNVNDKFSFNEVKDN [H19N], for which the protein stability index amounted to 3.79.

Regarding GGADIIVIKYNVNDKFSFPEVKDN [H19P], the protein stability index came out at 2.55.

On to GGADIIVIKYNVNDKFSFREVKDN [H19R], for which the protein stability index stood at 2.82.

GGADIIVIKYNVNDQFSFHEVKDN [K15Q]: the protein stability index came to 2.13.

For GGADIIVIKYNVNDGFSFHEVKDN [K15G], the protein stability index stood at 4.47.

With GGADIIVIKYNVNDYFSFHEVKDN [K15Y], the protein stability index worked out at 2.75.

In the case of GGADIIVIKYNVNDNFSFHEVKDN [K15N], the protein stability index was found to be 3.83.

For the variant GGADIIVIKYNVNDWFSFHEVKDN [K15W], the protein stability index was 3.18.

On to GGADIIVIKYNVNDSFSFHEVKDN [K15S], for which the protein stability index was determined as 2.73.

For GGALIIVIKYNVNDKFSFHEVKDN [D4L], the protein stability index is 1.8.

Regarding GGANIIVIKYNVNDKFSFHEVKDN [D4N], the protein stability index turned out to be 2.47.

As for GGAMIIVIKYNVNDKFSFHEVKDN [D4M], the protein stability index was 3.48.

For GGAEIIVIKYNVNDKFSFHEVKDN [D4E], the protein stability index came out at 4.16.

As for GGAAIIVIKYNVNDKFSFHEVKDN [D4A], the protein stability index was 2.91.

For GGAIIIVIKYNVNDKFSFHEVKDN [D4I], the protein stability index turned out to be 3.04.

Take GGAPIIVIKYNVNDKFSFHEVKDN [D4P]: the protein stability index is 3.07.

Take GGADIIVIKYNVNDKFSFHEVCDN [K22C]: the protein stability index was determined as 2.88.

For GGADIIVIKYNVNDKFSFHEVFDN [K22F], the protein stability index came to 4.16.

As for GGADIIVIKYNVNDKFSFHEVADN [K22A], the protein stability index came to 2.89.

Take GGADIIVIKYNVNDKFSFHEVLDN [K22L]: the protein stability index turned out to be 2.43.

For GGADIIVIKYNVNDKFSFHEVEDN [K22E], the protein stability index amounted to 3.13.

As to GGADIIVIKYNVNDKFSFHEVGDN [K22G], the protein stability index came out at 2.76.

Turning to GGADIIVIKYNVNDKFSFHEVVDN [K22V], the protein stability index was determined as 3.25.

On to GGADIIVIKYNVNDKFDFHEVKDN [S17D], for which the protein stability index amounted to 2.64.

Regarding GGADIIVIKYNVNDKFNFHEVKDN [S17N], the protein stability index was 3.14.

Consider GGADIIVIKYNVNDKFPFHEVKDN [S17P], for which the protein stability index was 2.54.

Regarding GGADIIVIKYNVNDKFVFHEVKDN [S17V], the protein stability index was determined as 1.73.

As to GGADIIVIKYNVNDKFCFHEVKDN [S17C], the protein stability index came out at 2.27.

Take GGADIIVIKYNVNDKFKFHEVKDN [S17K]: the protein stability index was 3.18.

As for GGADIIVIKYNVNDKFYFHEVKDN [S17Y], the protein stability index was found to be 1.63.

For GGADIIVIKYNVNDKFSFHKVKDN [E20K], the protein stability index is 1.88.

On to GGADIIVIKYNVNDKFSFHWVKDN [E20W], for which the protein stability index was 2.67.

Consider GGADIIVIKYNVNDKFSFHTVKDN [E20T], for which the protein stability index came out at 1.52.

Regarding GGADIIVIKYNVNDKFSFHGVKDN [E20G], the protein stability index was 2.78.

In the case of GGADIIVIKYNVNDKFSFHRVKDN [E20R], the protein stability index was 2.93.

GGADIIVIKYNVNDKFSFHHVKDN [E20H]: the protein stability index was 1.9.

For GGADIIVIKYNVNDKFSFHYVKDN [E20Y], the protein stability index is 2.26.

GGADIIVIKYNVNDKFSFHEVKDH [N24H]: the protein stability index came out at 2.14.

As to GGADIIVIKYNVNDKFSFHEVKDD [N24D], the protein stability index worked out at 1.94.

Consider GGADIIVIKYNVNDKFSFHEVKDT [N24T], for which the protein stability index is 4.04.

For GGADIIVIKYNVNDKFSFHEVKDM [N24M], the protein stability index turned out to be 3.25.

Regarding GGFDIIVIKYNVNDKFSFHEVKDN [A3F], the protein stability index turned out to be 3.37.

Regarding GGLDIIVIKYNVNDKFSFHEVKDN [A3L], the protein stability index is 2.64.

Regarding GGHDIIVIKYNVNDKFSFHEVKDN [A3H], the protein stability index came out at 3.04.

For GGMDIIVIKYNVNDKFSFHEVKDN [A3M], the protein stability index worked out at 2.03.

Consider GGYDIIVIKYNVNDKFSFHEVKDN [A3Y], for which the protein stability index worked out at 2.96.

In the case of GGTDIIVIKYNVNDKFSFHEVKDN [A3T], the protein stability index was 2.21.

As for GGEDIIVIKYNVNDKFSFHEVKDN [A3E], the protein stability index was 1.74.

Regarding GGADIIVIKYNVNKKFSFHEVKDN [D14K], the protein stability index came to 3.14.

In the case of GGADIIVIKYNVNVKFSFHEVKDN [D14V], the protein stability index amounted to 4.54.

GGADIIVIKYNVNGKFSFHEVKDN [D14G]: the protein stability index came to 1.72.

As to GGADIIVIKYNVNMKFSFHEVKDN [D14M], the protein stability index worked out at 1.62.

Regarding GGADIIVIKYNVNWKFSFHEVKDN [D14W], the protein stability index is 2.63.

Regarding GGADIIVIKYNVNHKFSFHEVKDN [D14H], the protein stability index worked out at 2.94.

Turning to GGADIIVIKYNVNNKFSFHEVKDN [D14N], the protein stability index stood at 3.12.

GGADYIVIKYNVNDKFSFHEVKDN [I5Y]: the protein stability index amounted to 1.78.

GGADTIVIKYNVNDKFSFHEVKDN [I5T]: the protein stability index was found to be 2.47.

GGADAIVIKYNVNDKFSFHEVKDN [I5A]: the protein stability index turned out to be 1.81.

Consider GGADIIVIKYNRNDKFSFHEVKDN [V12R], for which the protein stability index worked out at 2.8.

For GGADIIVIKYNKNDKFSFHEVKDN [V12K], the protein stability index is 1.82.

In the case of GGADIIVIKYNPNDKFSFHEVKDN [V12P], the protein stability index was 2.13.

With GGADIIVIKYNENDKFSFHEVKDN [V12E], the protein stability index was determined as 1.72.

On to GGADIIVIKYNTNDKFSFHEVKDN [V12T], for which the protein stability index amounted to 2.73.

As to GGADIIVIKYNQNDKFSFHEVKDN [V12Q], the protein stability index is 2.3.

For the variant GGADIIVIKYNMNDKFSFHEVKDN [V12M], the protein stability index is 2.67.

Take GGADIIVIKYNGNDKFSFHEVKDN [V12G]: the protein stability index was 2.7.

As for GGADIIVIKYNNNDKFSFHEVKDN [V12N], the protein stability index amounted to 2.66.

Consider GGADIIVIKYNLNDKFSFHEVKDN [V12L], for which the protein stability index was 2.24.
